According to a protein production outcome set (Wang et al. 2014):

Experiment: label from the status in PepcDB records

Sequence	protein production
MGRNDPLAAYNAKRDFARTAEPAGKRKSSATGNLFIVQKHDATRLHWDFRMEVDGVLKSWAVTRGPSPDPDDKRLAVQTEDHPLEYARFEGIIPEGEYGGGTVMLWDKGTWEPVEGKSAKDLEKGHLHFRLEGERMKGEWLLVRLKRRGNEKRDNWLLRKLDDAYAGQGDQLVERGLTSVLTGRTMAEIASDKAGSHSLKGKRGKAFASVMEEAGTHNRKVGKARGKAPSRARRNAPLPAFQPVQLATLVDTVPDGRQWLYEIKFDGYRALVAVRGTEVRVFTRSGLDWTEKFAPLARHLAGLKLPSCLIDGEIVAADADGNPDFSRLQAVLKRGHGEQGEGDALSFHAFDLLELEGEDLKPLPNVERKQKLAALLAGVSPPIHVADHIIGGGEKLLGALCGAGQEGIICKRADAAYAGKRTQNWLKVKCVARQEFIVVGFTRSSARRRPFASLLLAQREGKALVYKGKVGTGFDEDLLQDLATRFEALKVDEGPLDVPITEARGVTWLKPELVAEIAFAEFTAEGRVRHASFVGLREDKKAADVVPERPAPLVVQPEIVPISNRERVIFPESGQTKGDLADYYAAMAPAMLPFIANRPVSLVRCPQGRARHCFFQKHDSGSFGEHVHHVPIREKDGNEEEYLFVSDAAGILSCVQMGTIEFHGWCSLASDVEAPERMVIDLDPDEGLDFNDVKRAARDIRDRLSDLGLVSFAMLSGGKGVHVVVPLRPDHTWEAHASFAERFARALALAEPDRYVATMSKARRKGRIFIDWLRNRRGSTAVMPYSARARANAPVAVPIAWEELDDFANAHPFCIGDTAGLLKRSEGKSLRGWGMAQQSLPDV	failed
TRGSAQMQPYFEELLLSLGPILKNITNSMVISGHTDSTPYAGSLFTNWELSSERALLARRVLERGGVKRDQVIQVTGMADQVPYITSDTAAAANRRIEALILTS	failed
MKGSLIVIVFFCVGCIMGVFNKFQFDTHTVSMYILYALMLQVGISIGSNKNLKAIISHLHPKMLLIPLGTITGTLLFSALASILLSQWSVFDCMAVGSGFAYYSLSSILITQFKEPTIGIQLATELGTIALLTNIFREMMALLGTPLIKKYFGKLAPISAAGVNSMDVLLPSISRYSGKEMIPIAILHGILIDISVPVFVSFFCNL	failed
MAQENPLWMRHCAISPDGTTIAFTYKGDIFTVPVSGGKATQITTNPAFDTTPIWSPDSKQIAFASDRMGSMDVFIVSKDGGEPRRLTTFSGGETPVAFTDAGHILFTADIMPSTEDAGFPSNGQFQQIYQIPVSGGRPVMFSSMPMECISINKEGTILYQDKKGYEDYWRKHQKSPIARDIWMLRPGQTPRYEKQTTFIGEDREPVWAPDGKSFYYLSEENGTFNVYQRTPGSDTSKQVTHHKQHPVRFLEHHHHHH	failed
MPIHSLSLAGFRSIRKLTLELDALNVVVGANGCGKSNLYKSIQLLHAAAEGGLSAALAAEGGAQKAMWAGGTRRGDKARVPKRMILSARLDDYDYELQLGYPEPSCSLFALDPLVKEESLWLAGHGRRPSTLLLERRNQAAFLCGVEGERNSYPASLRAEESLFGQLAEPHRYPELSQVRETLRNWRFYHEFAIWPGSPLRAPQVGIRSPVLAHDGANLAAAFQTIVEIGDHELLHSVLTDAFPDSRFLVDAQQGRFQMLMRRDGLLRPLEAAELSDGTLRFLCLAVALLSPRPPAFMALNEPENSLHPALLPALARLIAEASRHSQLWVTSHSPELAERIRRHRPLKTFQLSLRDGETVLQDDLEHHHHHH	failed
MTSTFLLEIGTEELPADFARQALDQLQDRVGRDLLDSRLDHKSVQVLGTPRRLVVRVHGLADRQPDLEEDQKGPPIAQAFKDGVPGPAAIGFSKRCGVDPSQLEVRNTPKGECVFASVRTEGQNSVDLLQELIPAWINGLQGRRFMRWGTGSQRFSRPIRWLLALKGVDLIPVEIPGADPPVRSDRFSRGHRLHGDQPLPIDTAEDYDDTLAAAGVIVDRQQRAALIRSQLDASADQLNGLPDCPESLFEELVDLVESPRLLQGSIAERFLSLPPEVIITVMQAHQRYVPLKVPEVTPDPLQLEATVVLQRDFLLVGNGLEAADALITRGNERVLAARLADAEFFLSVDRRQPSSARREALDRVTFAEGLGSLLDRCQRIERTARQLVDQLNLDAHQGEAAIRAAHFCKHDLVSQMVGEFPELQGLMGGKYLLEEGEPTEVALAVVEHYLPRGAGDQLPSSDAGAVVALAERLELLLSIFAKGERPSGSSDPYALRRAGNGLLQIVWDRGWRLDLSRFLGSAVEDWAALFPEFAIDSSALHQDLCQLLRQRIVSQLEDEGFVPDLVQAVSAESVAT	failed
MSEVLTRGFRFRPADEEVTDYLMRKTQSPEFSCFIKTIDLYDKDPWVLGHVRDPCYNHYEWYYFVKKNPLGNEYLDKPRLNGFEHPRLKWDVLKQIHDALSSGQNVPPSVFTYGFRFHPTDQELLSLYLTPKAHSPDFSCFIRERESYMPWSHGFLNMLDLLFTRTVNGTTL	failed
MDFKQRHTWLKIASCKSISAKKRASIWQKLTEFDQYEMTTQTFAESFFPVDKLAQILMELETAEACFFDDVTLIWILDDAYPALLREIYEAPPILFCKGNIDLLQQQAIAIVGTRQMSEYGRKACMKIASELAENKLTIVSGMAIGIDSTAHRATLNKQGATIAVLGSGVNKVYPKKNELLAKEIVKEGLLLSEYLPDEEAKRWHFPERNRIISGLAIGTVIIEAAERSGSLITADIALEQNRQVFAVPGNIFIDTWQGTNYLIQEGAKLVMNSNNIIEEFIQIKP	failed
MDLSTAFPTLVTDLPAAFSMSVVGGVGLAMIVLDAFRNDHPAIPWLGVAALGVSAVWEITHLGAPPSTVFFETLRTGGFVAFINLIILLTGLATILLSVPYLNQLRYDYGEVYALIMFCTVGMIMLGSANNMVSIFLGLETMSVCLYVLTGFIREDEGAVESALKYFLLGAFSTGFFLYGIALMYGATGTMALPAMAAAELGTLSTRLLFWGGFALFLVGFFFKVSAAPFHMWTPDVYQGAPTPLTGYMSTATKAAAFAALILVLVHAVPGGEWQLSVAAVAVLTMVIGNVMALAQTNVKRLLAYSSIAHAGYLLVGLSAGTSAGYAGALFYLLVYAVMNIGAFGVMSMLEWDGKEGREQTLSSLAGIANDRPVLGSTMGVFMLSLIGFPPLGGFIGKYLVFAPAVDAGLTWLVVIGVLMSALSAYYYLRVVYVFWMQSADEVAATDPVRAAAFPRATVAATGTLVVCAVALVVLGVFFGGVLETTLGFFETTAMATAP	failed
MKKWIKIVLYSLLAILIVGSITFLSWSQFTYKPTKEALSLVDDKKDEDYIVFGEKDAKIGVIFYQGAKVEAEAYSYLGEALAKDGHFVVMPKLPLNLALFGINEVDSVIEQYPEVQKWYVAGHSMGGAMISRYAFQHEEKVDGIIFLGSYPADDFSTKSIPMLSIYGEVDALATVEKIENNKKFMSKNTTMHMIKGGNHAHFGMYGEQKGDNASLITAKAQRDETVKVIEQWLLEQ	failed
MEQQRSFQTETGGHLYLVPTPIGNLDDMTFRAVKTLTAVDLIAAEDTRNTQKLLNHFEITTKQISFHEHNTQERIPQLIAKLKQGMQIAQVSDAGMPSISDPGHELVNACIDAHIPVVPLPGANAGLTALIASGLAPQPFYFYGFLDRKPKDRKAEIAGLAQRPETLIFYEAPHRLKKTLQNLAAGFGDERPAVLCRELTKRYEEFLRGSLAELANWAATDTVRGEFVVLVGGNPAPTTAATTAVDLSEPIDVQVDRLIAAGEKPNDAIKEVAKLRGAKKQEIYRQYHHLDEE	not failed
MRKVRIANEQTEESDIIKIVHLSDIHFSEAYYMPEIADSMLQIINESSPDIVIITGDLTENGFAAEYNGAKNFIDKIECKNKVIVPGNHDSKNAGYLFFEDIFKARSSSGYFGDVTVIGLDSSQPELDDGHIGRENYGWIESTFSTGSFKVFALHHHLIPIPKTGRGNNVLVDAGDVLELLDRSGVNLVLCGHWHIPWVWRLNDMFIISAGTVCSSKIRGKTSQCYNLIELETPESECTRWHLRITRVFSSGIKELVVDNIV	failed
MAFVRYIPCRKIPRNVDQFELPCLGSLRAFFSTQKLIGDEPVLVRDFIHTALYDPIQGYFSQRSKSVGVLERSIKFNQLEGRKAYMKLLEKVYKQSDISWFTPVELFKPWYAHGIAEAILRTTNLSVPLKGVLDYIMLNAPERIYKNMSYTSIEISPSLAKIQKETVAQVGSHLSKFRVECRDASDLAGWSKVLFVQHKADSGFQFPVAMLEFENVEQQPCWVIMLEVLDNLPHDLVYSKSQLSPWMEVLVENKPESEALSELYKPLEDPLIKRCIEIVEHEDDPKLLEVLHAKLPKMSLIASDFSFLPDVKVPGERAPLVSTKKDGCSSDYSSYLDAKGDADIFFPTDFWLLERMDHYCSGWRKMEKDGTPSKKGRKRRTLTVNQDSL	failed
